Test results as given in patent US20110097300A1 (SUNNYBROOK HEALTH SCIENCES CENTRE, published 2011).
Where no end group is shown, it is not given here. Maleimide‑PEO2‑Biotin = EZ-link-PEO-maleimide-biotin, biotinylated PEG-maleimide moiety (29 angstrom)

Target: T1, Tie 2 of EaHy926 endothelial cells (UniProt Q02763 23-1124, limits assumed)
T1 construct: whole, on cells; also called Tek
Assay: avidin agarose pull down from EaHy926 whole cell lysate, anti-Tie 2 immunoblot
Procedure: In this example, the ability of Vasculotide to bind the Tie 2 receptor, despite the engineered modifications, was tested using an in vitro pull down assay. In the pull down assay, a cell lysate of EaHy926 endothelial cells (which express high levels of Tie 2) was prepared in Phospho Lipase Cγ lysis buffer (50 mM Hepes buffer pH 7.5, 150 mM NaCl, 10% glycerol, 1% Triton X-100, 1.5 mM MgCl₂, 1.0 mM EGTA, 10 mM NaPPi, […], 2 mM Na₃VO₄, 1× aprotinin, 1× leupeptin and 1× PMSF). The whole cell lysate was mixed with either unclustered biotinylated Vasculotide or biotinylated irrelevant peptide. The biotinylated peptides then were isolated with avidin agarose and subsequently tested for their ability to precipitate Tie 2 via standard immunoblot analysis using anti-Tie 2 antibody.

T1 sequence (Q02763 23-1124 limits assumed): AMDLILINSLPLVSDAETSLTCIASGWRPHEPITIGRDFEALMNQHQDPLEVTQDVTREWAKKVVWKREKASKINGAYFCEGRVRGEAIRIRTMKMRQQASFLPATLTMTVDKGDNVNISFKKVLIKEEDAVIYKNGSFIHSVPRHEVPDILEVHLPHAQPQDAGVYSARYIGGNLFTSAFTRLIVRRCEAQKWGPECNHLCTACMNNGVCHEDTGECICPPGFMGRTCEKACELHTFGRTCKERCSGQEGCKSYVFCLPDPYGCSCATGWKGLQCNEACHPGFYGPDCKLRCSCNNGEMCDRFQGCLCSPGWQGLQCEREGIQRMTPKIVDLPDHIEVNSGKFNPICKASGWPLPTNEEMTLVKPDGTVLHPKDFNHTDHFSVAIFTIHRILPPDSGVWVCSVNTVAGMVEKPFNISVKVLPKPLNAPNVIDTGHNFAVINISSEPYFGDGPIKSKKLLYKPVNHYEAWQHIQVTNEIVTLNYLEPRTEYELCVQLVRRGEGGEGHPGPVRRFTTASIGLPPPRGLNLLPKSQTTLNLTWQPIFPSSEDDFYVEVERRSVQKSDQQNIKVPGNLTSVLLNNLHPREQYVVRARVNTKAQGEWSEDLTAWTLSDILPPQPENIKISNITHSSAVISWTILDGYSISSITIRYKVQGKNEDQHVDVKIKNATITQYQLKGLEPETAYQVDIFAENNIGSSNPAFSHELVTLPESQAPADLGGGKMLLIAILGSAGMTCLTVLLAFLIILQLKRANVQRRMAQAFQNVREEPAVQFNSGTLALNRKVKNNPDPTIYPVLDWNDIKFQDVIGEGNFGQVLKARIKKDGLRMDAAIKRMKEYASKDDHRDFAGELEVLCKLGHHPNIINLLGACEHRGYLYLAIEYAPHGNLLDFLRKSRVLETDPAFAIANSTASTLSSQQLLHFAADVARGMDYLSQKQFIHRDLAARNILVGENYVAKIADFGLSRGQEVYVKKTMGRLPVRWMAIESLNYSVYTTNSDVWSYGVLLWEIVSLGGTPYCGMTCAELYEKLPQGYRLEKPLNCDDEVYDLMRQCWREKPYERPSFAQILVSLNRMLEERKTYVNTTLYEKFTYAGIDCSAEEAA

B1: unclustered Vasculotide (biotinylated T7 peptide-PEG monomer) (peptide)
peptide: C(Maleimide‑PEO2‑Biotin)HHHRHSF-OH
notes: L-amino acids; monomer, not clustered with avidin; also called T7-biotin; non-clustered Vasculotide
binding result: binds
